These results are taken from paper PMC7244511, “Phosphoproteomics identifies dual-site phosphorylation in an extended basophilic motif regulating FILIP1-mediated degradation of filamin-C” (Communications Biology, 2020).

For experiment [1], the target named is FILIP1 (filamin A-interacting protein 1), carboxy-terminus (CT) carboxy-terminus (CT) (UniProt Q7Z7B0). The experiment in a line: co-immunoprecipitation, quantitative immunoblot. The note with it: reference: wild type; sites S2233,S2236. (In western blotting, separated proteins are transferred to a membrane and probed.)
For experiment [2] the target is unchanged. Briefly: anti-Myc co-immunoprecipitation, quantitative immunoblot. To be noted: reference: wild type; sites S2233,S2236.
Experiment [3] concerns the target T1, FILIP1 CT-GFP (expressed in HEK293 cells) (UniProt Q7Z7B0-2 776-1177).
T1 construct: FILIP1 carboxy-terminus (CT); also called FILIP1-GFP CT; wild-type FILIP1 CT-GFP; source: HEK293 (HEK293T), transfected, in lysate
T1 sequence (looked up): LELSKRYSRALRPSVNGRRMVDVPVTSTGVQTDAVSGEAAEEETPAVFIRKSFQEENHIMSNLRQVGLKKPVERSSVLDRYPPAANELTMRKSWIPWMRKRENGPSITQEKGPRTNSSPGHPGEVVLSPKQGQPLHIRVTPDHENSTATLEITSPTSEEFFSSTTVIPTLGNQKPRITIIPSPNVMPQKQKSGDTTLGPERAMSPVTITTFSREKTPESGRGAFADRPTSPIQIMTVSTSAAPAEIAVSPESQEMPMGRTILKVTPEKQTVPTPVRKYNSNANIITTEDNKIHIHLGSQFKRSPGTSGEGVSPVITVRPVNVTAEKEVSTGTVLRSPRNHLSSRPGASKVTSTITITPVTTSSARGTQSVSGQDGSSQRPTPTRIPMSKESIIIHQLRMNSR
Briefly: fluorescence correlation spectroscopy (competition); recombinant FLNc d19–21 (44,000 to 21 nM) or its DD mutant (60,000 to 78 nM) titrated to HEK293T lysate with FILIP1 CT-GFP bound to Myc-hFLNc d18–21 DD; PBS pH 7.4, 0.05% Tween-20, 20 °C. To be noted: one partner purified.

By Kd is commonly meant the constant that tells how readily two partners part at equilibrium.

“human filamin-C (hFLNc) Ig-like domains 18-21 (d18–21) (from UniProt Q14315) AA (S2233A/S2236A)”: the “binding against the reference” value in experiment [1] and in experiment [2] was “stronger” each time.

B1: recombinant hFLNc d19–21, wild type (domain or fragment, human, UniProt Q14315 2036-2410, looked up)
chain: SEIGDASKVRVWGKGLSEGHTFQVAEFIVDTRNAGYGGLGLSIEGPSKVDINCEDMEDGTCKVTYCPTEPGTYIINIKFADKHVPGSPFTVKVTGEGRMKESITRRRQAPSIATIGSTCDLNLKIPGNWFQMVSAQERLTRTFTRSSHTYTRTERTEISKTRGGETKREVRVEESTQVGGDPFPAVFGDFLGRERLGSFGSITRQQEGEASSQDMTAQVTSPSGKVEAAEIVEGEDSAYSVRFVPQEMGPHTVAVKYRGQHVPGSPFQFTVGPLGEGGAHKVRAGGTGLERGVAGVPAEFSIWTREAGAGGLSIAVEGPSKAEIAFEDRKDGSCGVSYVVQEPGDYEVSIKFNDEHIPDSPFVVPVASLSDDARR
notes: human filamin-C, Ig-like domains 19–21; also called wildtype hFLNc d19–21; non-phosphorylated hFLNc d19–21
B1: in experiment [3], the Kd came out at 1170 nM.
